Results as given in IntAct's records for PubMed 20462497.

B1: Interleukin-10 receptor subunit beta (Homo sapiens), Q08334 (parent)
chain: MAWSLGSWLGGCLLVSALGMVPPPENVRMNSVNFKNILQWESPAFAKGNLTFTAQYLSYRIFQDKCMNTTLTECDFSSLSKYGDHTLRVRAEFADEHSDWVNITFCPVDDTIIGPPGMQVEVLADSLHMRFLAPKIENEYETWTMKNVYNSWTYNVQYWKNGTDEKFQITPQYDFEVLRNLEPWTTYCVQVRGFLPDRNKAGEWSEPVCEQTTHDETVPSWMVAVILMASVFMVCLALLGCFALLWCVYKKTKYAFSPRNSLPQHLKEFLGHPHHNTLLFFSFPLSDENDVFDKLSVIAEDSESGKQNPGDSCSLGTPPGQGPQS
B2: Interleukin-10 receptor subunit beta (Homo sapiens), Q08334 (parent)
chain: B1 chain
partner: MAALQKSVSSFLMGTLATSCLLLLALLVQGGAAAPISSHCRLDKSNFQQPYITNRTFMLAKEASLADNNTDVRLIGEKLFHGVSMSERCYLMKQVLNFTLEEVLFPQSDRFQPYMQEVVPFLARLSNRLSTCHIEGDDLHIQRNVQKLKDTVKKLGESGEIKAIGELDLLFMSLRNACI

Variants of: B1
Conditions: with il10_human IL10, P22301
Sequence of il10_human IL10, P22301 (P22301 whole entry): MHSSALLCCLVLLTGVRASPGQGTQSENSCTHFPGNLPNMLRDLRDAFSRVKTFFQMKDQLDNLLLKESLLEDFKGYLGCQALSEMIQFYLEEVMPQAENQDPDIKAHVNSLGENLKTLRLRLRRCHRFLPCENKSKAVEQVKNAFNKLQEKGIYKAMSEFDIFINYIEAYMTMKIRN

For MAWSLGSWLGGCLLVSALGMVPPPENVRMNSVNFKNILQWESPAFAKGNLTFTAQYLSYRIFQDKCMNTTLTECDFSSLSKAGDHTLRVRAEFADEHSDWVNITFCPVDDTIIGPPGMQVEVLADSLHMRFLAPKIENEYETWTMKNVYNSWTYNVQYWKNGTDEKFQITPQYDFEVLRNLEPWTTYCVQVRGFLPDRNKAGEWSEPVCEQTTHDETVPSWMVAVILMASVFMVCLALLGCFALLWCVYKKTKYAFSPRNSLPQHLKEFLGHPHHNTLLFFSFPLSDENDVFDKLSVIAEDSESGKQNPGDSCSLGTPPGQGPQS [Y82A], which “effect of a mutation on the interaction” value is on record?
The value was “decreasing interaction”.

Variants of: B2
Conditions: with il22_human IL22, Q9GZX6

For MAWSLGSWLGGCLLVSALGMVPPPENVRMNSVNFKNILQWESPAFAKGNLTFTAQYLSYRIFQDKCMNTTLTECDFSSLSKAGDHTLRVRAEFADEHSDWVNITFCPVDDTIIGPPGMQVEVLADSLHMRFLAPKIENEYETWTMKNVYNSWTYNVQYWKNGTDEKFQITPQYDFEVLRNLEPWTTYCVQVRGFLPDRNKAGEWSEPVCEQTTHDETVPSWMVAVILMASVFMVCLALLGCFALLWCVYKKTKYAFSPRNSLPQHLKEFLGHPHHNTLLFFSFPLSDENDVFDKLSVIAEDSESGKQNPGDSCSLGTPPGQGPQS [Y82A], which “effect of a mutation on the interaction” value is on record?
Its value is “decreasing interaction”.
